assay: yeast display, Sf9 membrane polyspecificity reagent, FACS + sequencing; frameworks hold sequencing errors
Method in brief: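 Using colony PCR, genes from sorted yeast display clones were amplified, then sequenced on MiSeq at 2 × 250 and filtered by CDR length. The clones had been stained with 10% biotinylated, detergent-solubilized Sf9 membrane reagent for 1 hour at 4 °C and sorted by FACS into low and high (top ~1%) gates on anti-HA and streptavidin fluorescence. Polyreactivity labels come from the gate of origin.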

| Sequence | polyreactivity (PSR sort gate) |
| --- | --- |
| QVQLVESGGGLVQAGGSLRLSCAASGSNFRRNAMGWYRQAPGKERELVAAINSRGGSTYYADSVKGRFTISRDNAKNTVYLQMNSLKPEDTAVFYCATARFLRYDRYDDYWGQGTQVTVSS | low polyreactivity |
| QVQLVESGGGLVQAGGSLRLSCAASGSNFSYNAMGWYRQAPGKERELVATITTGGRTSYADSVKGRFTISRDNAKNTVYLQMNSLKPEDTAVYYCAAVGRFSSRPRVVYYGYDYWGQGTQVTVSS | low polyreactivity |
| QVQLVESGGGLVQAGGSLRLSCAASGSNFTANAMGWYRQAPGKERELVAAISRSGGRTYYADSVKGRFTISRDNAKNTVYLQMNSLKPEDTAVYYCNVGRFNTSGYDYWGQGTQVTVSS | high polyreactivity |
| QVQLVESGGGLVQAGGSLRLSCAASGSNFVIYAMGWYRQAPGKERELVAAIRFSTGSTYYADSVKVRFTNSRDYAKNTVYLQMNSLKPEDTAVYYCAAATWQWPWYDYWGQGTQVTVSS | high polyreactivity |
| QVQLVESGGGLVQAGGSLRLSCAASGSNFYFYAMGWYIQAPGKERELVADITWSGGSTYYADSVKGRFTISRDNAKNTVYLQMNSLKREDTAVYYCATDSWFGLEYWGQGTQVTVSS | high polyreactivity |
| QVQLVESGGGLVQAGGSLRLSCAASGSNFYGNAMGWYRQAPGKERELVAAISRSGGRSYYADSVKGRFTISRDNAKNTVYLHMNSLKPEATAVYYCAARQYQATLQYGYYPGYGYWGQGTQVTVSS | high polyreactivity |
| QVQLVESGGGLVQAGGSLRLSCAASGSNFYGYAMGWYRQAPGKERELVAAISSGGRTKYADSVKGRFTISRDNAKNTVYLQMNSLKPEDTAVYYCNVSYLVDRWKFGWSMDYWGQGNQVTVSS | low polyreactivity |
| QVQLVESGGGLVQAGGSLRLSCAASGSNIGLNAMGWSRQAPGKEREWVAAITRISGRTRYADSVKRRFTISRDNAKNTVSLQMNSLKPEDTAVYYCDARFQSTNGHKYYYWGQGTQVTVSS | high polyreactivity |
| QVQLVESGGGLVQAGGSLRLSCAASGSNLTFYAMGWYRQAPGKERELVAAITWRGGSTYYADSVKGRFTISRDNAKNTVYLQMNSLKPEDTAVYYCAAEQVGYYLNWRDYWGQGTQVTVSS | high polyreactivity |
| QVQLVESGGGLVQAGGSLRLSCAASGSNLVHYAIGWYRQAPGKERELVAASSRGGSTNYADSVKGRFTISRDNAKNTVYLQMNSLKPEDTAVYYCAARRPWGEYYWGQGTQVTVSS | low polyreactivity |
| QVQLVESGGGLVQAGGSLRLSCAASGSPFDYNAMGWYRPAPGKERELVAASDVSGDNTYYADSVKGRFTISRDNAKNTVYLQMNSLKPEETAVYYCNADDYWRGTSDYDYWGQGTQVTVSS | low polyreactivity |
| QVQLVESGGGLVQAGGSLRLSCAASGSPFGDSAMGWYRQAPGKERELVAAISVYGASTYYADSVKGRFTISRDNAKNTVYLHMNSLKPEDTEVYYCAATYDTIGDSWGQGTQVTVSS | low polyreactivity |
| QVQLVESGGGLVQAGGSLRLSCAASGSPFGSNAMGWYRQAPGKERELVAAISYGGDRTYYADSVKGRFTISRDNAKNTVYLQMISLKPEDTALYYCNARIYKGYNYWGQGTQVTVSS | high polyreactivity |
| QVQLVESGGGLVQAGGSLRLSCAASGSPFRRYAMGWYRQAPGTERELVAAISWRGGSTRYADSVKGRFTLSRDNAKNTVYLQMNSLKPEDTAVYYCAALGSYGNPPSYNYWGQGTQVTVSS | high polyreactivity |
| QVQLVESGGGLVQAGGSLRLSCAASGSPFSVYAMGWYRQAPGKERELVAAISWTVGSTYYADSVKGRFTISRDTAKNTVYLQMNSLIPEDTAVYYCAADIYWHYDYWGQGTQVTVSS | high polyreactivity |
| QVQLVESGGGLVQAGGSLRLSCAASGSSFDDKAMGWYRQAPGKERELVASITYRGGSTYYADSVKGRFTISRDHAKNTVNLHIKSLKPEVTAVYYCDKGHYFKYDYWGQGTQVTVSS | low polyreactivity |

| Sequence | polyreactivity (PSR sort gate) |
| --- | --- |
| QVQLVESGGGLVQAGGSLRLSCAASGSSFDWNAMGWYRQAPGKERELVASITGSGGGTNYADSVKGRFTISRDNAKNTVYLQMNSLKPEDTAVYYCNADGLNFDGHEYWGQGTQVTVSS | low polyreactivity |
| QVQLVESGGGLVQAGGSLRLSCAASGSSFDWYVMGWYRQAPGKERELVAVISRSGGSTYYADSVKGRFTISRDNAKITVYLQMNSLTPEDTAVYSCGADSRSYYRDVDYWGQGTQVTVSS | low polyreactivity |
| QVQLVESGGGLVQAGGSLRLSCAASGSSFISNTMGWYRQAPGKERELVAAISSGGDTSYADSVKGRFTISRDNAKNTVYLQMNILKPEDTAVYYCNVDTSATSYSSEYDYWGQGTQVTVSS | low polyreactivity |
| QVQLVESGGGLVQAGGSLRLSCAASGSSFLSNTMGWYRQAPGKECELVAAITSGGDTSYADSVKGRFTISRDNAKNTVYLHMKILKADDTAVYYCNVDTSATCYSSEYDYWGQGTQVSVSS | low polyreactivity |
| QVQLVESGGGLVQAGGSLRLSCAASGSSFPGNAMGWYRQAPGKERELVARINDGADTNYADSVKGRFTISRDNAKNTVYLQMNSLKPEDTAVYYCAKPYYDGRTHFDSWGQGTQVTVSS | low polyreactivity |
| QVQLVESGGGLVQAGGSLRLSCAASGSSFRAYAMGWYRQAPGKERELVAVITYSGDRTYYADSVKGRFTISRDNAKNTVYLQMNSLKPEDTAVYYCAADLQYWHSYSYDDYYYWGQGTQVTVSS | low polyreactivity |
| QVQLVESGGGLVQAGGSLRLSCAASGSSFRRNAMGWYRQAPGKERELVAAITRGGGSTYYADSVKGRFTISRDNAKNTVYLQMNSLKPEDTAVYYCAAQISATRETMDYWGQGTQVTVSS | high polyreactivity |
| QVQLVESGGGLVQAGGSLRLSCAASGSSFSHNVMGWYRQAPRKERELVATINWSGGSTYYADSVKGRFTISRDNAKKSDYLQMNSLKPEDTAVYYCAADRQITVYAYDYWGQGTQVTVSS | low polyreactivity |
| QVQLVESGGGLVQAGGSLRLSCAASGSSFYPYAMGWYRQAPGKERELVAAISRRGGSTYYADSVKGRFTISRDNAKNTVYLQMNSLKPVDTEVYYCNVVTDSPYPVDYWGQGTQVTVSS | high polyreactivity |
| QVQLVESGGGLVQAGGSLRLSCAASGSTCDYNAMGWYRQAPGKERELVAAITSTGGNTYYADSVKGRFTISRDKAKNTVYLQMNSLKPADTAVYYCNKDVARYPYGKFDYWGQGTQVTVSS | low polyreactivity |
| QVQLVESGGGLVQAGGSLRLSCAASGSTCVNNDMGLYRQAPGKEGELVAGITTSGGSTYYADSVKGRFTISRDKAKNTVYLQMNSLKPEDTAVYYCAARAFSAWLEMDYWGQCTQVTVSS | low polyreactivity |
| QVQLVESGGGLVQAGGSLRLSCAASGSTFAANAMGWYRQAPGKERELVAAITSSGGSTYYADSVKGRFTISRDNAKNTVYLQMNSLKPEDTAVYYRNKDIERYVRIYDSWGQGTQVTVSS | low polyreactivity |
| QVQLVESGGGLVQAGGSLRLSCAASGSTFAAYAMGWYRQAPGKERELVAAISGGRTYYADSVKGRFTISRDNAKNTVYLEMYSLKPEDTAVYYCAKRYFYYTAFNAYGYWGQGTQVTVSS | high polyreactivity |
| QVQLVESGGGLVQAGGSLRLSCAASGSTFAAYVMGWYRQAPGKERELVAAISTSGGGTYYADSVKGRFTISRDTAKNTVYLQMNSLKPEDTAVYYCAADYGSGSVSYDYWGQGTQVTVSS | low polyreactivity |
| QVQLVESGGGLVQAGGSLRLSCAASGSTFAFYAMGWYRPAPGKERELVAAITWDGGTTYYADSVKGRFTIARDNAKNTVYLQMNSLKPEDSAVYYCAADYASVSIYDNVPSAPGYDYWGQGTQVTVSS | low polyreactivity |
| QVQLVESGGGLVQAGGSLRLSCAASGSTFAFYAMGWYRQAPGKERELVAAISFSGGSTYYADSVKGRFTISRDNAKNTVYLQMNSLKPEDTAVYYCNARYPNTRKYDYWGQGTQVTVSS | high polyreactivity |

Source: the nanobody polyreactivity screen of Harvey et al. (2022)
